The values that follow come from paper PMC6318259, “Distinct Stabilities of the Structurally Homologous Heptameric Co-Chaperonins GroES and gp31” (Journal of the American Society for Mass Spectrometry, 2018).

The stoichiometry N is a count of units in the complex or per binding partner.

The data set deals with the molecule itself. In words: native MS; 10 μM monomer in 10 mM aqueous ammonium acetate, pH 6.8; nano-electrospray, modified Orbitrap (Exactive Plus / Q-Exactive EMR); oligomeric state of the protein with itself.

B1: GroES (natural protein, Escherichia coli)
chain: MNIRPLHDRVIVKRKEVETKSAGGIVLTGSAAAKSTRGEVLAVGNGRILENGEVKPLDVKVGDIVIFNDGYGVKSEKIDNEEVLIMSESDILAIVEA
notes: GroES, co-chaperonin of Escherichia coli; homo-heptamer of 10.4 kDa subunits; The printed subunit mass of 10.4 kDa fits the whole protein; also called GroES heptamer; co-chaperonin GroES; source: over-expressed in E. coli strain MC1009, purified as described previously
With B1, the “stoichiometry N” value turned out to be 7.

B2: gp31 (natural protein, bacteriophage T4)
chain: MSEVQQLPIRAVGEYVILVSEPAQAGDEEVTESGLIIGKRVQGEVPELCVVHSVGPDVPEGFCEVGDLTSLPVGQIRNVPHPFVALGLKQPKEIKQKFVTCHYKAIPCLYK
notes: gp31, co-chaperonin encoded by bacteriophage T4, structural homologue of GroES; heptamer of identical 12 kDa subunits; The printed subunit mass of 12 kDa fits the whole protein; also called gp31 heptamer; source: over-expressed in E. coli strain MC1009, purified as described previously
B2: the “stoichiometry N” value is 7.
